Results published in article PMC11255334, “Acetyl-CoA synthetase activity is enzymatically regulated by lysine acetylation using acetyl-CoA or acetyl-phosphate as donor molecule” (Nature Communications, 2024).
Positions count from the first letter of the chain named.

T1: AcsA from Chloroflexota bacterium (Chloroflexota bacterium, UniProt Z9YKO5Y7U4)
T1 construct: monomer in solution and crystal; expression and tag not described; His476 found phosphorylated
T1 sequence (Z9YKO5Y7U4 9-657): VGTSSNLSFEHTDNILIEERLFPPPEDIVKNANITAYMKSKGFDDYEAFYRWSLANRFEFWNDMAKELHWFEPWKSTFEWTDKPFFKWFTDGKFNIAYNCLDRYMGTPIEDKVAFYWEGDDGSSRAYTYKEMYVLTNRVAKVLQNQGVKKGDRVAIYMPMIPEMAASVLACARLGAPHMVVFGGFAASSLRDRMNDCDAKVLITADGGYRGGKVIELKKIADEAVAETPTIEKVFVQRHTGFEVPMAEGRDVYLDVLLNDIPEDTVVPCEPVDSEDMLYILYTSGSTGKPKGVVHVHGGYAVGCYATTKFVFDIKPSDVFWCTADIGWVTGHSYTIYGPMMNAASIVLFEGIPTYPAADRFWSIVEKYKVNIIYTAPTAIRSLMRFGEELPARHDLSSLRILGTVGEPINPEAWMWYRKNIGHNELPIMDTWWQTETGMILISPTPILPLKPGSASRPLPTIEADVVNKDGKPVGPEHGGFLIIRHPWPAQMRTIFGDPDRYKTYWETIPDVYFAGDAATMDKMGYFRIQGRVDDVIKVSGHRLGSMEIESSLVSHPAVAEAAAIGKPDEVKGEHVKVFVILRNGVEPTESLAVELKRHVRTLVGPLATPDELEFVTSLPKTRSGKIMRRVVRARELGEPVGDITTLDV

T2: AcsA K549Q (Bacillus subtilis, UniProt P39062 1-572, K549Q)
T2 construct: AcsA, Bacillus subtilis, UniProt P39062, with K549Q; also called acetylation-mimetic mutant AcsA K549Q
T2 sequence (looked up): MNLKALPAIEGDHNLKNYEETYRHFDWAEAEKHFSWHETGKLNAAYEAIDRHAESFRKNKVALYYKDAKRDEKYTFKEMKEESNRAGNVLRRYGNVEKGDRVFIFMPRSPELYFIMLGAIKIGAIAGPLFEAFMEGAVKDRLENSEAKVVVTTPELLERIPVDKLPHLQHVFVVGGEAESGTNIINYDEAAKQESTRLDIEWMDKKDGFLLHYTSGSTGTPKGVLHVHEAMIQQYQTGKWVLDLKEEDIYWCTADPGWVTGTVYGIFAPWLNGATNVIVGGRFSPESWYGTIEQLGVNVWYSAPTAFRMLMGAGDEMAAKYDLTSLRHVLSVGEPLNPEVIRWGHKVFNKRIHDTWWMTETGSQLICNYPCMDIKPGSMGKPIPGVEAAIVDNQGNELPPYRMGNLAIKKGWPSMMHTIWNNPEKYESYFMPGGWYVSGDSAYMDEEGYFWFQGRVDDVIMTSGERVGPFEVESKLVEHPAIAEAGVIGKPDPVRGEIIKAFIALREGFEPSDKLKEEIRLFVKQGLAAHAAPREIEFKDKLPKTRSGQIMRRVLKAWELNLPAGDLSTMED

T3: AcsA E473A (Bacillus subtilis, UniProt P39062 1-572, E473A)
T3 construct: AcsA, Bacillus subtilis, UniProt P39062, with E473A
T3 sequence (looked up): T2 sequence (looked up) with E473A, Q549K

T4: AcsA V477A (Bacillus subtilis, UniProt P39062 1-572, V477A)
T4 construct: AcsA, Bacillus subtilis, UniProt P39062, with V477A
T4 sequence (looked up): T2 sequence (looked up) with V477A, Q549K

T5: AcsA K549R (Bacillus subtilis, UniProt P39062 1-572, K549R)
T5 construct: AcsA, Bacillus subtilis, UniProt P39062, with K549R; also called non-acetylated mutant AcsA K549R
T5 sequence (looked up): T2 sequence (looked up) with Q549R

B1: Bacillus subtilis acetyltransferase AcuA (enzyme, UniProt P39065 1-210, looked up)
chain: MEHHKTYHSANIKTATGSLLIEGPVSPEDLAGYEFHKDLTAFRPPREQHEALVDIAGLPEGRIIIARDGRTIVGYVTYLYPDPLERWSEGNMEDLIELGAIEVAPDYRGCAVGKTLLTVSMMDEQMENYIVMTTEYYWHWDLKGMKKDVWEYRKIMEKMMNAGGLVWFATDEPEISSHPANCLMARIGKNVSQESIEQFDRLRFYHRYMY
notes: GNAT-related lysine acetyltransferase AcuA, Bacillus subtilis, UniProt P39065; synthetic gene codon optimized for E. coli; also called AcuA wildtype; AcuA WT; source: E. coli BL21 (DE3), pET45b(+), purified (HisTrap FF, Ni2+)

Key:
[1] = biological target: T1, AcsA from Chloroflexota bacterium; test: X-ray crystallography; type: binding; details: product of the first half-reaction; thioester-forming conformation
[2] = biological target: Bacillus subtilis AMP-forming acetyl-CoA synthetase AcsA (Bacillus subtilis) (UniProt P39062); test: SEC; analytical SEC of equimolar AcsA and AcuA (wild type or mutants), incubated 30 min at room temperature, Superdex 200 10/300 GL, 50 mM Tris/HCl pH 8, 50 mM KCl, 2 mM β-mercaptoethanol; 100 µl of 50–100 µM; without ligand or with a tenfold molar excess of CoA or AcP alone
AcsA K549Q = biological target: T2, AcsA K549Q; test: as above; details: both partners purified
AcsA E473A = biological target: T3, AcsA E473A; test: as above; details: both partners purified
AcsA V477A = biological target: T4, AcsA V477A; test: as above; details: both partners purified
AcsA K549R = biological target: T5, AcsA K549R; test: as above; details: both partners purified

| Molecule | X-ray crystallography [1] | stoichiometry N (AcuA per AcsA (2:2)) [2] | binding result (AcsA K549Q) | binding result (AcsA E473A) | binding result (AcsA V477A) | binding result (AcsA K549R) |
| --- | --- | --- | --- | --- | --- | --- |
| CC(=O)OP(=O)(O)OC[C@H]1O[C@@H](n2cnc3c(N)ncnc32)[C@H](O)[C@@H]1O [acetyl-AMP] | structure solved in complex with acetyl-AMP, i.e. the product of the first half-reaction |  |  |  |  |  |
| B1 |  | 1 | binds | binds | binds | binds |
